{
  "source": "paper PMC2185789",
  "about": "(The Journal of Experimental Medicine, 1980)",
  "binders": {"B1": {"name": "C9 (natural protein)", "chain": "not shown"}},
  "molecular_target": "C5b-8 complex (human, UniProt P01031 752-1676; P01031 19-673; P13671 22-934; P10643 23-843; P07357 31-584; …)",
  "experiment": "negative-stain electron microscopy",
  "data": [
    {"binder": "B1", "values": [
      {"measurement": "binding result", "value": "binds"}
    ]}
  ]
}
